The text below walks through data of PMC4545946, “Human Papillomavirus Type 18 cis-Elements Crucial for Segregation and Latency”.

What all share (details): protein: recombinant; tags: N-terminal Strep-II; chain copies: 2; label: 32P 5' end
Data set [1] addresses T1, HPV-18 E2 (N-terminal Strep-II tag) (Human papillomavirus type 18, UniProt P06790 1-365). Description: EMSA; two dimers, cooperative; intermediate k12 (value only in Fig 4D).
The target of data set [2] is T1, HPV-18 E2 (N-terminal Strep-II tag). The data set can be described thus: EMSA; two dimers, cooperative; k12 order 1-Linker < 3-Linker < 2-Linker (values only in Fig 4D); >95% probe bound at 1.65 uM E2.
The target is the same in data set [3]. Description: EMSA; two dimers, cooperative; highest k12 (value only in Fig 4D).

T1 sequence (P06790 whole entry): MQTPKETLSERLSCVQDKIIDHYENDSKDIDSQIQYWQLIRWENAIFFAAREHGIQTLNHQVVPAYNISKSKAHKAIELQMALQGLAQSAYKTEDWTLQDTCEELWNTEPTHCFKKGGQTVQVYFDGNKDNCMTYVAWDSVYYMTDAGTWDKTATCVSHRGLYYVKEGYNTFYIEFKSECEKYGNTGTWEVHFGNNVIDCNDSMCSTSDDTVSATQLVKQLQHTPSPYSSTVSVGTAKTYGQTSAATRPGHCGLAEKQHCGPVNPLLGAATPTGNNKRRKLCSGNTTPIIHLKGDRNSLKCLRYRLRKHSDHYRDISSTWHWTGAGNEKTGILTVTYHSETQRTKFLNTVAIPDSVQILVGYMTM

B1: 3-Linker (E2BS #1 and #2, 12 bp spacer) (dsDNA)
DNA 1: ACCGAAAACGGTCGGGCGGGCGGGACCGAAAACGGT
DNA 2: ACCGTTTTCGGTCCCGCCCGCCCGACCGTTTTCGGT
As for B1, the binding result in data set [1] is reported as “binds”.

B2: 1-Linker (wt, E2BS #1 and #2 with CGGG spacer) (dsDNA)
DNA 1: ACCGAAAACGGTCGGGACCGAAAACGGT
DNA 2: ACCGTTTTCGGTCCCGACCGTTTTCGGT
For the molecule B2, the binding result in data set [2] is reported as “binds”.

B3: 2-Linker (E2BS #1 and #2, 8 bp spacer) (dsDNA)
DNA 1: ACCGAAAACGGTCGGGCGGGACCGAAAACGGT
DNA 2: ACCGTTTTCGGTCCCGCCCGACCGTTTTCGGT
As for B3, in data set [3], the binding result is “binds”.
